According to publication PMC4077652, “An Unstable Th Epitope of P. falciparum Fosters Central Memory T Cells and Anti-CS Antibody Responses” (PLoS ONE, 2014):
Where no end group is shown, it is not given here.

Key:
[1] = biological target: soluble recombinant HLA-DR4 (HLA-DRβ1*04:01) (human); assay: ELISA; apparent Kd; direct binding of biotin-labeled peptide to DR4 as in the DR-ELISA (72 h), binding reactions set up with 1 µM HLA-DM
[2] = biological target: soluble recombinant HLA-DR4 (HLA-DRβ1*04:01) (human); assay: dissociation kinetics (LB3.1 capture, europium-streptavidin time-resolved fluorescence)
[3] = biological target: soluble recombinant HLA-DR4 (HLA-DRβ1*04:01) (human); assay: ELISA

Row | Binder | Kd [1] [nM] | half-life [2] [h] | half-life with HLA-DM [2] [h] | Kd [3] [nM]
1 | QNSLSTEWSPCSVT (not fully specified (N-terminus)) [biotin-labeled QNT-5 332-345 peptide] | 714 | 5.08 | 1.75 | 504
2 | QNSYSTEWSPCSVT (not fully specified (N-terminus)) [biotin-labeled QNT-Y peptide (QNT-5 analogue L335Y)] | 35.7 | 138 | 43.1 | 25.5
